The values that follow come from publication PMC9426602, “The Native Orthobunyavirus Ribonucleoprotein Possesses a Helical Architecture” (mBio, 2022).

This series concerns the molecule itself. As to the kind of experiment: negative staining EM; purified native RNPs, untreated, in reduced-salt TNE (25 mM NaCl), 1% uranyl acetate.

B1: Bunyamwera virus (BUNV) nucleocapsid protein (NP), as it stands in native ribonucleoproteins (RNPs) purified from virions (natural protein)
chain: MIELEFHDVAANTSSTFDPEVAYANFKRVHTTGLSYDHIRIFYIKGREIKTSLAKRSEWEVTLNLGGWKITVYNTNFPGNRNNPVPDDGLTLHRLSGFLARYLLEKMLKVSEPEKLIIKSKIINPLAEKNGITWNDGEEVYLSFFPGSEMFLGTFRFYPLAIGIYKVQRKEMEPKYLEKTMRQRYMGLEAATWTVSKLTEVQSALTVVSSLGWKKTNVSAAARDFLAKFGINM
notes: the atomic model started from the BUNV NP crystal structure PDB 3ZLA; Many copies of NP form a helical filament around each RNA segment (about 3.4 NPs per turn); the number of copies depends on the segment; The viral RNA is part of the assembly; also called BUNV NP; source: native RNPs from BUNV virions grown in BHK-21 cells; virions disrupted by freeze/thaw, RNPs purified on a 10 to 25% OptiPrep …
Regarding B1, the binding result is recorded as “binds”.
